Reference: patent publication US8383117

What was measured:
[1] = biological target: T1, CD44E (CD44 isoform 3, epithelial form) (human, UniProt P16070 21-742); test: flow cytometry, A-375 cells, surface-bound antibody after 60 min at 37 °C
T1 construct: also called CD44v8-10; VB1-008 Ag

[2] = biological target: T1, CD44E (CD44 isoform 3, epithelial form); test: flow cytometry, MDA-MB-435S cells (very positive line)
[3] = biological target: T1, CD44E (CD44 isoform 3, epithelial form); test: flow cytometry, MB231 cells
Source text: (§1) Appropriate isotype-matched controls were also used in the study.

[4] = biological target: T1, CD44E (CD44 isoform 3, epithelial form); test: flow cytometry, A-375 cells, surface-bound antibody after 120 min at 37 °C
[5] = biological target: T1, CD44E (CD44 isoform 3, epithelial form); test: flow cytometry, MB231 cells; control 4B5-IgG
Source text: as §1

[6] = biological target: T1, CD44E (CD44 isoform 3, epithelial form); test: flow cytometry, DAUDI cells (called antigen-negative)
[7] = biological target: T1, CD44E (CD44 isoform 3, epithelial form); test: flow cytometry, RAMOS cells (called a negative line)
[8] = biological target: T1, CD44E (CD44 isoform 3, epithelial form); test: flow cytometry, A-375 cells; control 4B5-IgG
Source text: as §1

[9] = biological target: T1, CD44E (CD44 isoform 3, epithelial form); test: flow cytometry, A-375 cells (very positive line)
[10] = biological target: T1, CD44E (CD44 isoform 3, epithelial form); test: flow cytometry, MB435S cells
Source text: as §1

[11] = biological target: T1, CD44E (CD44 isoform 3, epithelial form); test: flow cytometry, RAMOS cells; control 4B5-IgG
Source text: as §1

[12] = biological target: T1, CD44E (CD44 isoform 3, epithelial form); test: flow cytometry, PANC-1 cells (called a negative line in the immunoprecipitation)
[13] = biological target: T1, CD44E (CD44 isoform 3, epithelial form); test: flow cytometry, MCF-7 cells (weakly positive line)
[14] = biological target: T1, CD44E (CD44 isoform 3, epithelial form); test: flow cytometry, MCF-7 cells
Source text: as §1

[15] = biological target: T1, CD44E (CD44 isoform 3, epithelial form); test: flow cytometry, MCF-7 cells; control 4B5-IgG
Source text: as §1

[16] = biological target: T1, CD44E (CD44 isoform 3, epithelial form); test: flow cytometry, DAUDI cells (called antigen-negative); remark: listed apart in the source
[17] = biological target: T1, CD44E (CD44 isoform 3, epithelial form); test: flow cytometry, PANC-1 cells (no antigen purified from this line)
[18] = biological target: T1, CD44E (CD44 isoform 3, epithelial form); test: flow cytometry, PANC-1 cells; control 4B5-IgG
Source text: as §1

[19] = biological target: T1, CD44E (CD44 isoform 3, epithelial form); test: flow cytometry, DAUDI cells (called antigen-negative); control 4B5-IgG
[20] = biological target: T1, CD44E (CD44 isoform 3, epithelial form); test: flow cytometry, MDA-MB-231 cells (moderately positive line)
[21] = biological target: T1, CD44E (CD44 isoform 3, epithelial form); test: flow cytometry, A-375 cells
[22] = biological target: T1, CD44E (CD44 isoform 3, epithelial form); test: flow cytometry saturation curve on A-375 tumor cells, Lineweaver-Burk; antigen on the cells identified later in the filing as CD44E
Procedure: Values and graphical analysis were generated using Sigma Plot (Jandel Scientific, San Rafael, Calif.). The inverse of the determined median fluorescence was plotted as a function of the inverse of antibody concentration to determine KD by the Lineweaver-Burk method. A straight line was generated and the KD was calculated from the slope of the curve.

[23] = biological target: T1, CD44E (CD44 isoform 3, epithelial form); test: flow cytometry, RAMOS cells
[24] = biological target: T1, CD44E (CD44 isoform 3, epithelial form); test: flow cytometry, MB435S cells; control 4B5-IgG
Source text: as §1

[25] = biological target: T1, CD44E (CD44 isoform 3, epithelial form); test: flow cytometry, A-375 cells kept on ice for 120 min; over human IgG (4B5)

T1 sequence (P16070 other isoform, or with tags, fused parts or gaps limits assumed): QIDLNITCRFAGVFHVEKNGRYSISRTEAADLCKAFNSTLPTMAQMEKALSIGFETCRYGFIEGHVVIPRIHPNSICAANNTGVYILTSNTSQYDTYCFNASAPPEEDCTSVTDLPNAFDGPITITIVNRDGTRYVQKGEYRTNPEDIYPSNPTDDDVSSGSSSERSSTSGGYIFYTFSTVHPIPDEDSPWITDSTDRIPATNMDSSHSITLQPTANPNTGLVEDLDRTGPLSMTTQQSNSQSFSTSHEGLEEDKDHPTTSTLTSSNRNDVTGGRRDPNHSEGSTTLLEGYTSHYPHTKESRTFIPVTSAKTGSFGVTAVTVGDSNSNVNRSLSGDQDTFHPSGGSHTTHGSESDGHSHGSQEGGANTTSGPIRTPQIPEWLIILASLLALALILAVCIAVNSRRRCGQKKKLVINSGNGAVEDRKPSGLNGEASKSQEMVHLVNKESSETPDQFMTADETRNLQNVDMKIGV

- Fold-increase in MF [1]: 13.5 fold
- increase in median fluorescence over isotype-matched control (MF) [2]: 15.8 fold
- Flow results [3]: 14.2 fold
- Fold-increase in MF [4]: 12 fold
- fold-increase in median fluorescence over isotype-matched control [5]: 14.2 fold
- increase in median fluorescence over isotype-matched control (MF) [6]: 1.1 fold
- increase in median fluorescence over isotype-matched control (MF) [7]: 1.3 fold
- fold-increase in median fluorescence over isotype-matched control [8]: 13.3 fold
- increase in median fluorescence over isotype-matched control (MF) [9]: 13.3 fold
- Flow results [10]: 15.8 fold
- fold-increase in median fluorescence over isotype-matched control [11]: 1.1 fold
- increase in median fluorescence over isotype-matched control (MF) [12]: 8.3 fold
- increase in median fluorescence over isotype-matched control (MF) [13]: 4.67 fold
- Flow results [14]: 4.63 fold
- fold-increase in median fluorescence over isotype-matched control [15]: 4.63 fold
- Flow results [16]: 1 fold
- Flow results [17]: 8.95 fold
- fold-increase in median fluorescence over isotype-matched control [18]: 8.3 fold
- fold-increase in median fluorescence over isotype-matched control [19]: 1 fold
- increase in median fluorescence over isotype-matched control (MF) [20]: 14.2 fold
- Flow results [21]: 11.1 fold
- Kd [22]: 58.8 nM
- Flow results [23]: 1.1 fold
- fold-increase in median fluorescence over isotype-matched control [24]: 15.8 fold
- Fold-increase in MF [25]: 31.7 fold
B1: VB1-008 monoclonal antibody (antibody, V domains shown)
VH: QVQLQELGPRLVRPSQTLILTCTVSGGSVSGDEYYWSWLRQTPGKGLEWIGYMSYRGSSYYSPSLQSRVTIAVDRSKNEFSLKLTSVTAADAAVYFCARKYCGGDCRSGFDIWGRGTMVTVAS
VL: YELTQPPSVSVSPGQKAFITCSGDNLGNKYVCWYQQKPGQSPVLVIYEDTKRPSGIPERFSASNSGNTATLTISGTQPIDEADYYCQAWDSRTEIFGTGTKVTVLS
notes: also called 17P2/C12
